Literature values, collected in paper PMC6678900.
Values belong to the substance of their own block, whether it stands above or below them.

Legend:
TRAILR1 (Homo sapiens) = TRAILR1 (Homo sapiens) (UniProt O00220)
TRAILR2 (Homo sapiens) = TRAILR2 (Homo sapiens) (UniProt O14763)
TRAILR4 (Homo sapiens) = TRAILR4 (Homo sapiens) (UniProt Q9UBN6)

Kd (TRAILR1 (Homo sapiens)): > 1 µM
Substance: TRAILR1 (from UniProt O00220)

Kd (TRAILR2 (Homo sapiens)): > 1 µM
Substance: TRAILR2 (from UniProt O14763)

Kd (TRAILR4 (Homo sapiens)): > 1 µM
Substance: TRAILR4 (from UniProt Q9UBN6)
